Where a chain is given by its changes, count along the chain named.
T1: Mouse PD-1 extracellular domain, hFc tag (mouse, UniProt Q02242 25-169)
T1 construct: extracellular domain; also called mPro1.ECD.hFc; not shown: human Fc tag at C-terminus
T1 sequence (looked up): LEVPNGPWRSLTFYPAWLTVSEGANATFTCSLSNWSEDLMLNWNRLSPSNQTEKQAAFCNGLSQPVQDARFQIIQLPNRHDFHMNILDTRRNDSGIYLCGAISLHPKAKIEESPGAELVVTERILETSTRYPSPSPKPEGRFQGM

B1: AP17R1-2H2-Z1 (VHH)
VHH: QVQLVESGGGVVQPGGSLRLSCAASDSIDSLVNMGWYRQAPGKQRELVALIANYITHYADFVKGRFTISRDNSKNTLYLQMNSLRAEDTAVYYCYARNIIVDYWGQGTLVTVSS
notes: also called the humanized AP17R1-2H2; not shown: his- and c-Myc-tag from vector pETbac
B2: AP17R1-2H2-Z1-R1-29B2 (VHH)
VHH: B1 VHH with I100R
notes: not shown: his- and c-Myc-tag from vector pETbac
B3: AP17R1-2H2-Z1-R1-14A1 (VHH)
VHH: B1 VHH with N53T
notes: as for B2
B4: AP17R1-2H2-Z1-R1-14F1 (VHH)
VHH: B1 VHH with N53Y
notes: as for B2
B5: AP17R1-2H2-Z1-R1-29B6 (VHH)
VHH: B1 VHH with I100Y
notes: as for B2
B6: AP17R1-2H2-Z1-R1-27A2 (VHH)
VHH: B1 VHH with N98S
notes: as for B2
B7: AP17R1-2H2-Z1-R1-14B3 (VHH)
VHH: B1 VHH with N53R
notes: as for B2
B8: AP17R1-2H2-Z1-R1-4D8 (VHH)
VHH: B1 VHH with D29Q
notes: as for B2
B9: AP17R1-2H2-Z1-R1-30D3 (VHH)
VHH: B1 VHH with V101E
notes: as for B2
B10: AP17R1-2H2-Z1-R1-6E1 (VHH)
VHH: B1 VHH with L31M
notes: as for B2
B11: AP17R1-2H2-Z1-R1-14F3 (VHH)
VHH: B1 VHH with N53W
notes: as for B2
B12: AP17R1-2H2-Z1-R1-4B2 (VHH)
VHH: B1 VHH with D29S
notes: as for B2

These binders were tested against T2, Human PD-1 extracellular domain, hFc tag (human, UniProt Q15116 25-170) (assay: SPR Biacore 8K; PD-1-hFc captured on anti-human Fc chip, VHH injected; 1:1 fit).
T2 construct: extracellular domain; also called hPro1.ECD.hFc; not shown: human Fc tag at C-terminus
T2 sequence (Q15116 25-170): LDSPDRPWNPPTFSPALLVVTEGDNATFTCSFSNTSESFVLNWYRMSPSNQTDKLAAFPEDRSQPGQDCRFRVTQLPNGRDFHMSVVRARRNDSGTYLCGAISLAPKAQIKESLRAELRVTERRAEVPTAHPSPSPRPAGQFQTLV
Protocol: (§1) To screen WBP3056 VHH antibodies from affinity maturation, koff to hPro1.ECD.hFc, mPro1.ECD.hFc and cynoPro1.ECD.hFc (AcrobioSystems) was detected by SPR assay using Biacore 8K. hPro1.ECD.hFc, mPro1.ECD.hFc or cynoPro1.ECD.hFc (AcrobioSystems) was captured on an anti-human IgG Fc antibody immobilized CM5 sensor chip. Each VHH antibody was injected over the sensor chip at a flow rate of 30 uL/min for an association phase of 120 s, followed by 150 s dissociation. The association and dissociation curve was fit to a 1:1 model using Langmuir analysis.

Kd | koff | kon | Binder
12.7 nM | 0.00392 s⁻¹ | 307000 M⁻¹ s⁻¹ | B1
8.54 nM | 0.00347 s⁻¹ | 406000 M⁻¹ s⁻¹ | B2
2.06 nM | 0.00112 s⁻¹ | 543000 M⁻¹ s⁻¹ | B3
3.28 nM | 0.00135 s⁻¹ | 411000 M⁻¹ s⁻¹ | B4
7.01 nM | 0.00298 s⁻¹ | 425000 M⁻¹ s⁻¹ | B5
8.56 nM | 0.00331 s⁻¹ | 387000 M⁻¹ s⁻¹ | B6
5.09 nM | 0.00249 s⁻¹ | 489000 M⁻¹ s⁻¹ | B7
9.49 nM | 0.00396 s⁻¹ | 417000 M⁻¹ s⁻¹ | B8
6.79 nM | 0.00282 s⁻¹ | 416000 M⁻¹ s⁻¹ | B9
7.48 nM | 0.00328 s⁻¹ | 439000 M⁻¹ s⁻¹ | B10
2.35 nM | 0.00109 s⁻¹ | 465000 M⁻¹ s⁻¹ | B11
9.19 nM | 0.00413 s⁻¹ | 450000 M⁻¹ s⁻¹ | B12

These binders were tested against T1, Mouse PD-1 extracellular domain, hFc tag in the same assay as above.
Protocol: as §1

Kd | koff | kon | Binder
66.2 nM | 0.0136 s⁻¹ | 205000 M⁻¹ s⁻¹ | B1
55.8 nM | 0.0148 s⁻¹ | 264000 M⁻¹ s⁻¹ | B2
12.3 nM | 0.0047 s⁻¹ | 381000 M⁻¹ s⁻¹ | B3
7.8 nM | 0.00218 s⁻¹ | 280000 M⁻¹ s⁻¹ | B4
39.1 nM | 0.0108 s⁻¹ | 277000 M⁻¹ s⁻¹ | B5
33.7 nM | 0.00894 s⁻¹ | 265000 M⁻¹ s⁻¹ | B6
17.3 nM | 0.00596 s⁻¹ | 344000 M⁻¹ s⁻¹ | B7
33.7 nM | 0.00955 s⁻¹ | 284000 M⁻¹ s⁻¹ | B8
42.5 nM | 0.0118 s⁻¹ | 277000 M⁻¹ s⁻¹ | B9
50.8 nM | 0.0146 s⁻¹ | 287000 M⁻¹ s⁻¹ | B10
27.1 nM | 0.00732 s⁻¹ | 270000 M⁻¹ s⁻¹ | B11
34.6 nM | 0.0101 s⁻¹ | 292000 M⁻¹ s⁻¹ | B12

The binders below were run against T3, Cynomolgus PD-1 extracellular domain, hFc tag (cynomolgus, UniProt B0LAJ3 25-170) in the same assay as above.
T3 construct: Bought; also called cynoPro1.ECD.hFc; cyno PD-1 ECD protein
T3 sequence (B0LAJ3 entry or part of it limits assumed): as the sequence (Q15116 25-170) above, with D2E, P10A, V19L, T35A, Q75R, T144A counted along it
Protocol: as §1

Kd | koff | kon | Binder
36.4 nM | 0.00863 s⁻¹ | 237000 M⁻¹ s⁻¹ | B1
25.7 nM | 0.00817 s⁻¹ | 318000 M⁻¹ s⁻¹ | B2
5.04 nM | 0.00213 s⁻¹ | 424000 M⁻¹ s⁻¹ | B3
8.98 nM | 0.00277 s⁻¹ | 309000 M⁻¹ s⁻¹ | B4
20 nM | 0.00646 s⁻¹ | 323000 M⁻¹ s⁻¹ | B5
24.6 nM | 0.00745 s⁻¹ | 302000 M⁻¹ s⁻¹ | B6
13.2 nM | 0.00484 s⁻¹ | 366000 M⁻¹ s⁻¹ | B7
26 nM | 0.00833 s⁻¹ | 320000 M⁻¹ s⁻¹ | B8
19.2 nM | 0.00624 s⁻¹ | 325000 M⁻¹ s⁻¹ | B9
22.1 nM | 0.00754 s⁻¹ | 341000 M⁻¹ s⁻¹ | B10
7.18 nM | 0.00247 s⁻¹ | 344000 M⁻¹ s⁻¹ | B11
25.5 nM | 0.00879 s⁻¹ | 345000 M⁻¹ s⁻¹ | B12

From patent US20240301067A1 (WUXI BIOLOGICS IRELAND, published 2024)
